Consider two molecules from patent US20230265164A1 (MIT, published 2023).

For one test, the target named is T1, IL8 (UniProt P10145 28-99, limits assumed).
T1 sequence (looked up): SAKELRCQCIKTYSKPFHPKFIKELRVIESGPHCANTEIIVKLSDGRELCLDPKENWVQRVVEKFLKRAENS
Nature of the test: MicroScale Thermophoresis; 5 nM NT647-labeled receptor-Fc against a ligand gradient, 25 C. As to the method: (§1) MicroScale Thermophoresis (MST) is an optical method detecting changes in thermophoretic movement and TRIC of the protein-attached fluorophore upon ligand binding. Active labelled proteins contribute to the thermophoresis signal upon ligand binding. […] Herein ligand binding experiments were carried out with 5 nM NT647-labeled protein in 1×PBS, 10 mM DTT buffer with different concentration of arginine, against a gradient of respective ligands on a Monolith NT.115 pico instrument at 25° C. Synthesized receptors were labeled with Monolith NT™ 2nd generation protein labeling kit RED-NHS (NanoTemper Technologies) so as to obtain unique fluorescent signals. MST time traces were recorded and analyzed to obtain the highest possible signal-to-noise levels and amplitudes, >5 Fnorm units. The recorded fluorescence was plotted against the concentration of ligand, and curve fitting was performed using the Kd fit formula derived from the law of mass action. For clarity, binding graphs of each independent experiment were normalized to the fraction bound (0=unbound, 1=bound). MST experiments were performed in the Center for Macromolecular Interactions at Harvard Medical School.

For a further test, the target named is T2, CCL25 (UniProt O15444 24-150, limits assumed).
T2 sequence (looked up): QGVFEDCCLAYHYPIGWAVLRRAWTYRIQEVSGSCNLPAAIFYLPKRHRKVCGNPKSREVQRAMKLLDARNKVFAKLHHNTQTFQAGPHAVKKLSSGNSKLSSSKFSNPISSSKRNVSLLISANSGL
Described as above. On the procedure:
as §1

B1: CXCR2^QTY-Fc (Fc fusion)
chain: MEDFNMESDSFEDFWKGEDLSNYSYSSTLPPFLLDAAPCEPESLEINKYYTTTTYAQTYQQSQQGNSQTMQTTQYSRVGRSVTDTYQQNQAQADQQYAQTQPTWAASKVNGWIFGTFLCKTTSQQKETNYYSGTQQQACTSTDRYLAIVHATRTLTQKRYLVKYTCQSTWGQSQQQAQPTQQYRRTVYSSNVSPACYEDMGNNTANWRMQQRTQPQSYGYTQPQQTMQYCYGFTLRTLFKAHMGQKHRAMRTTYATTQTYQQCWQPYNQTQQADTLMRTQVIQETCERRNHIDRAQDATETQGTQHSCQNPQTYAYTGQKFRHGLLKILAIHGLISKDSLPKDSRPSFVGSSSGHTSTTLTETSQVAPAHHHHHHHHHHGSKLVDPRGPTIKPCPPCKCPAPNLLGGPSVFIFPPKIKDVLMISLSPIVTCVVVDVSEDDPDVQISWFVNNVEVHTAQTQTHREDYNSTLRVVSALPIQHQDWMSGKEFKCKVNNKDLPAPIERTISKPKGSVRAPQVYVLPPPEEEMTKKQVTLTCMVTDFMPEDIYVEWTNNGKTELNYKNTEPVLDSDGSYFMYSKLRVEKKNWVERNSYSCSVVHEGLHNHHTTKSFSRTPGK
modifications: NT647 (RED-NHS) fluorescent dye on lysines/N-terminus in the MST assay; positions not given.
notes: also called CXCR29QTY-Fc
One may read the Kd as the concentration at which binding is half-saturated. A low value points to a tighter complex. As to B1, in the test with IL8, the Kd turned out to be 0.0603 µM.

B2: CCR9^QTY-Fc (Fc fusion)
chain: MTPTDFTSPIPNMADDYGSESTSSMEDYVNFNFTDFYCEKNNVRQFASHYQPPQYWQTYTTGAQGNSQTTQTYWYCTRVKTMTDMYQQNQATADQQYQTTQPYWATAAADQWKFQTFMCKTTNSMYKMNYYSCTQQTMCTSTDRYTATAQAMRAHTWREKRQQYSKMTCYTTWTQAAAQCTPETQYSQIKEESGIAICTMVYPSDESTKQKSATQTQKTTQGYYQPYTTMACCYTTTTHTQTQAKKSSKHKAQKTTTTTQTTYTQSQYPYNCTQQTQTTDAYAMFISNCATSTNTDTCYQTTQTTAYYHSCQNPTQYTYTGERFRRDLVKTLKNLGCISQAQWVSFTRREGSLKLSSMLLETTSGALSLTETSQVAPAHHHHHHHHHHTETSQVAPAHHHHHHHHHHGSKLVDPRGPTIKPCPPCKCPAPNLLGGPSVFIFPPKIKDVLMISLSPIVTCVVVDVSEDDPDVQISWFVNNVEVHTAQTQTHREDYNSTLRVVSALPIQHQDWMSGKEFKCKVNNKDLPAPIERTISKPKGSVRAPQVYVLPPPEEEMTKKQVTLTCMVTDFMPEDIYVEWTNNGKTELNYKNTEPVLDSDGSYFMYSKLRVEKKNWVERNSYSCSVVHEGLHNHHTTKSFSRTPGK
modifications: NT647 (RED-NHS) fluorescent dye on lysines/N-terminus in the MST assay; positions not given.
B2 returned a Kd in the test with CCL25 of 0.0372 µM.
